B1: 29E (antibody, human IgG1, V domains shown)
VH: QVQLVESGGGVVQPGRSLRLSCAASGFTFRSYGMHWVRQAPGKGLEWVAVITYDGINKYYADSVEGRFTISRDNSKNTLYLQMNSLRAEDTAVYYCARDGVYYGVYDYWGQGTLVTVSS
VL: not shown
B2: 1F (antibody, human IgG1, V domains shown)
VH: EVQLLESGGGLVQPGGSLRLSCAASGFTFSDYAMGWVRQAPGKGLEWVSTISGSGGLTYYADSVKGRFTISRDNSKNTLYLQMNSLRAEDTAVYYCAKAPYGYYMDVWGKGTTVTVSS
VL: not shown
B3: 5G9 (humanized TF8-5G9, CNTO 860) (antibody, V domains shown)
VH: QVQLVESGGGVVQPGRSLRLSCKASGFNIKDYYMHWVRQAPGKGLEWIGLIDPENGNTIYDPKFQGRFTISADNSKNTLFLQMDSLRPEDTAVYYCARDNSYYFDYWGQGTPVTVSS
VL: DIQMTQSPSSLSASVGDRVTITCKASQDIRKYLNWYQQKPGKAPKLLIYYATSLADGVPSRFSGSGSGTDYTFTISSLQPEDIATYYCLQHGESPYTFGQGTKLEIT
B4: TF-011 (antibody, V domains shown)
VH: EVQLLESGGGLVQPGGSLRLSCAASGFTFSNYAMSWVRQAPGKGLEWVSSISGSGDYTYYTDSVKGRFTISRDNSKNTLYLQMNSLRAEDTAVYYCARSPWGYYLDSWGQGTLVTVSS
VL: DIQMTQSPPSLSASAGDRVTITCRASQGISSRLAWYQQKPEKAPKSLIYAASSLQSGVPSRFSGSGSGTDFTLTISSLQPEDFATYYCQQYNSYPYTFGQGTKLEIK
B5: 39A (antibody, human IgG1, V domains shown)
VH: QVQLVQSGAEVKKPGSSVKVSCKASGGTFSSNAIGWVRQAPGQGLEWMGSIIPIIGFANYAQKFQGRVTITADESTSTAYMELSSLRSEDTAVYYCARDSGYYYGASSFGMDVWGQGTTVTVSS
VL: EIVMTQSPATLSVSPGERATLSCRASQSVSSNLAWYQQKPGQAPRLLIYGASTRATGIPARFSGSGSGTEFTLTISSLQSEDFAVYYCEQYNNLPLTFGGGTKVEIK
B6: 25A (antibody, human IgG1, V domains shown)
VH: QVQLVQSGAEVKKPGASVKVSCKASGYTFDVYGISWVRQAPGQGLEWMGWIAPYNGNTNYAQKLQGRVTMTTDTSTSTAYMELRSLRSDDTAVYYCARDAGTYSPFGYGMDVWGQGTTVTVSS
VL: DIQMTQSPSTLSASVGDRVTITCRASQSISSWLAWYQQKPGKAPKLLIYKASSLESGVPSRFSGSGSGTEFTLTISSLQPDDFATYYCQQFQSLPPFTFGGGTKVEIK
B7: 29E (antibody, human IgG1, V domains shown)
VH: B1 VH
VL: not shown
B8: 1F (antibody, human IgG1, V domains shown)
VH: B2 VH
VL: not shown
B9: 5G9 (humanized TF8-5G9, CNTO 860) (antibody, V domains shown)
VH: B3 VH
VL: B3 VL
B10: TF-011 (antibody, V domains shown)
VH: B4 VH
VL: B4 VL

Molecular target: Relipidated TF (Tissue Factor) (UniProt P13726 33-295, limits assumed)
Experiment: cell-based or functional assay

Binder	% ETP, Ab 10 nM [%]	% ETP, Ab 50 nM [%]	% ETP, Ab 100 nM [%]	% Peak IIa, Ab 10 nM [%]	% Peak IIa, Ab 50 nM [%]	% Peak IIa, Ab 100 nM [%]	% ttPeak, Ab 10 nM [%]	% ttPeak, Ab 50 nM [%]	% ttPeak, Ab 100 nM [%]	ETP [nM · min], Ab 10 nM [nM·min]
B1	95	67	62	71	29	24	48	186	232	1930
B2	86			47	9	8	89	347	419	1740
B3	58			24	8	8	135	338	401	1180
B4	85			47	12		86	284	353	1710
B5	84			37	11	9	135	397	465	1690
B6				97	95	95	4	9	9	2110

Same assay, conditions: not given

Binder	ETP [nM · min], Ab 50 nM [nM·min]	ETP [nM · min], Ab 100 nM [nM·min]	Lag Time [min], Ab 10 nM [min]	Lag Time [min], Ab 50 nM [min]	Lag Time [min], Ab 100 nM [min]	Peak IIa [nM], Ab 10 nM [nM]	Peak IIa [nM], Ab 50 nM [nM]	Peak IIa [nM], Ab 100 nM [nM]	ttPeak [min], Ab 10 nM [min]	ttPeak [min], Ab 50 nM [min]
B1	1360	1260	7	14.1	17.1	235	95	81	11.7	22.6
B2			8.2	25.6	31	155	31	25	14.9	35.3
B3			10.4	25.1	29.9	79	28	27	18.6	34.6
B4			8	21.3		156	39	30	14.7	30.3
B5			10.8	29.8	34.7	122	36	29	18.6	39.3
B6	2120	2130	5	5.2	5.2	322	317	317	8.2	8.6

Same assay, conditions: not given

Binder	ttPeak [min], Ab 100 nM [min]
B1	26.2
B2	41
B3	39.6
B4	35.8
B5	44.6
B6	8.6

Molecular target: Relipidated TF (UniProt P13726 33-295, limits assumed)
Experiment: cell-based or functional assay

Binder	% ETP, TGA 10 min pre-incubation, 10 nM Ab [%]	% ETP, TGA 10 min pre-incubation, 50 nM Ab [%]	% ETP, TGA 10 min pre-incubation, 100 nM Ab [%]	% Peak IIa, TGA […] min pre-incubation, 10 nM Ab [%]	% Peak IIa, TGA […] min pre-incubation, 50 nM Ab [%]	% Peak IIa, TGA […] min pre-incubation, 100 nM Ab [%]	% ttPeak, TGA 10 min pre-incubation, 10 nM Ab [%]	% ttPeak, TGA 10 min pre-incubation, 50 nM Ab [%]	% ttPeak, TGA 10 min pre-incubation, 100 nM Ab [%]	ETP, TGA 10 min pre-incubation, 10 nM Ab [nM·min]
B7	77	72	66	36	30	28	159	237	247	1410
B8	41			16	8	7	220	433	483	742
B9				11	8	8	314	386	436	
B10					10					

Same assay, conditions: not given

Binder	ETP, TGA 10 min pre-incubation, 50 nM Ab [nM·min]	ETP, TGA 10 min pre-incubation, 100 nM Ab [nM·min]	Lag Time, TGA 10 min pre-incubation, 10 nM Ab [min]	Lag Time, TGA 10 min pre-incubation, 50 nM Ab [min]	Lag Time, TGA 10 min pre-incubation, 100 nM Ab [min]	Peak IIa, TGA […] min pre-incubation, 10 nM Ab [nM]	Peak IIa, TGA […] min pre-incubation, 50 nM Ab [nM]	Peak IIa, TGA […] min pre-incubation, 100 nM Ab [nM]	ttPeak, TGA 10 min pre-incubation, 10 nM Ab [min]	ttPeak, TGA 10 min pre-incubation, 50 nM Ab [min]
B7	1300	1200	9.4	14.1	14.7	98	83	76	18.1	23.6
B8			13.8	26.5	29.5	44	23	20	22.4	37.3
B9			19.3	23.6	26.7	30	23	22	29	34

Same assay, conditions: not given

Binder	ttPeak, TGA 10 min pre-incubation, 100 nM Ab [min]
B7	24.3
B8	40.8
B9	37.5
